# Test results as given in PMC9482650, “Quantitative fragmentomics allow affinity mapping of interactomes” (Nature Communications, 2022).
# Legend:
# Assay in all cases: holdup assay
# Set-up in all cases: key: below the threshold = too weak to quantify, mostly under pKd 3.1 to 4
# Settings in all cases: plain residues with an end cap or a label only (N-terminal biotin on a linker: ado-ado)
# PTPN3, P26045 = biological target: PTPN3, P26045
# GRIP2_4, Q9C0E4 = biological target: GRIP2_4, Q9C0E4
# MAGI2_5, Q86UL8 = biological target: MAGI2_5, Q86UL8
# Sequence of MAGI2_5, Q86UL8 (Q86UL8 915-1017): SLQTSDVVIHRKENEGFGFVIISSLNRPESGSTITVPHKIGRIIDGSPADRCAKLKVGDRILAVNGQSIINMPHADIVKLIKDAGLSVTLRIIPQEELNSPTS
# SNTG1, Q9NSN8 = biological target: T1, SNTG1, Q9NSN8
# T1 sequence (Q9NSN8 52-150, limits assumed, looked up): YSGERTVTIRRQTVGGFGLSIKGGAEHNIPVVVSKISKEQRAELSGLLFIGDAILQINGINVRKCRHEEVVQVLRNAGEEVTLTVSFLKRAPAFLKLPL
# NHERF3_3, Q5T2W1 = biological target: T2, NHERF3_3, Q5T2W1
# T2 sequence (Q5T2W1 238-333, limits assumed, looked up): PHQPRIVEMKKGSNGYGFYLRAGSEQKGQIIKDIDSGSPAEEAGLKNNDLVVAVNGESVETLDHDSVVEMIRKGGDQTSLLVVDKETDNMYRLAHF
# NHERF3_4, Q5T2W1 = biological target: T3, NHERF3_4, Q5T2W1
# T3 sequence (Q5T2W1 373-468, limits assumed, looked up): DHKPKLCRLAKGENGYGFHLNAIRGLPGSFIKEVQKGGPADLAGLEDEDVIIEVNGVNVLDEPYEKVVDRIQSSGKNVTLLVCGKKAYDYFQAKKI
# Inadl_6, Q8NI35 = biological target: Inadl_6, Q8NI35
# Sequence of Inadl_6, Q8NI35 (Q8NI35 1058-1167): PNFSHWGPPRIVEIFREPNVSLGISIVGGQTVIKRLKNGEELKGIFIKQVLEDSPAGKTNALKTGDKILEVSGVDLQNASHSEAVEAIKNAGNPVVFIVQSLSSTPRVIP
# FRMPD1, Q5SYB0 = biological target: T4, FRMPD1, Q5SYB0
# T4 sequence (Q5SYB0 52-145, limits assumed, looked up): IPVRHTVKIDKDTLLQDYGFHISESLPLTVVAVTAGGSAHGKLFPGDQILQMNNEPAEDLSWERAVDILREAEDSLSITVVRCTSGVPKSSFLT
# ARHGEF12, Q9NZN5-2 = biological target: ARHGEF12, Q9NZN5-2
# Sequence of ARHGEF12, Q9NZN5-2 (Q9NZN5 other isoform, or with tags, fused parts or gaps): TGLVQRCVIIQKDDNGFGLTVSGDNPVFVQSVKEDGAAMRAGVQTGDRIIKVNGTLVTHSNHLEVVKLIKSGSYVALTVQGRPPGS
# LNX1_3, Q8TBB1 = biological target: LNX1_3, Q8TBB1
# Sequence of LNX1_3, Q8TBB1 (Q8TBB1 500-596): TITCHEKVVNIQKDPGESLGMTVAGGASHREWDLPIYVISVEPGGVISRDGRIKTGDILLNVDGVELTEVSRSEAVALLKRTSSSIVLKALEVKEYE
# DLG1_3, Q12959 = biological target: DLG1_3, Q12959
# Sequence of DLG1_3, Q12959 (Q12959 457-571): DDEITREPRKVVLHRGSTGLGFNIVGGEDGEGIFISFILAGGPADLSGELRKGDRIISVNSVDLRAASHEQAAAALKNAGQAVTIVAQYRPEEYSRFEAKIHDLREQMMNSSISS
# MAGI2_3, Q86UL8 = biological target: MAGI2_3, Q86UL8
# Sequence of MAGI2_3, Q86UL8 (Q86UL8 600-682): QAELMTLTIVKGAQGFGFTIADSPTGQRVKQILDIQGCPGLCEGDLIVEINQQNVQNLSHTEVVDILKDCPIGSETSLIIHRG
# GIPC2, Q8TF65 = biological target: GIPC2, Q8TF65
# Sequence of GIPC2, Q8TF65 (Q8TF65 112-203): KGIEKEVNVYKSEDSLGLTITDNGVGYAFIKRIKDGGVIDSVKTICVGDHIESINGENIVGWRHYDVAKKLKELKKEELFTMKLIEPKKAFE
# PICK1, Q9NRD5 = biological target: PICK1, Q9NRD5
# Sequence of PICK1, Q9NRD5 (Q9NRD5 17-115): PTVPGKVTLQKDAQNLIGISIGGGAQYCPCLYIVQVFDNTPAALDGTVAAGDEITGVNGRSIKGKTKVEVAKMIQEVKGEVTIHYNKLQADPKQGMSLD
# PDZD2_2, O15018 = biological target: T5, PDZD2_2, O15018
# T5 sequence (O15018 329-429, limits assumed, looked up): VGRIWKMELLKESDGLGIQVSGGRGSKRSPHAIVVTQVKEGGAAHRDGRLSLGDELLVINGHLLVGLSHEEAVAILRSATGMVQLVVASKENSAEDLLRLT
# MAGI2_4, Q86UL8 = biological target: MAGI2_4, Q86UL8
# Sequence of MAGI2_4, Q86UL8 (Q86UL8 772-865): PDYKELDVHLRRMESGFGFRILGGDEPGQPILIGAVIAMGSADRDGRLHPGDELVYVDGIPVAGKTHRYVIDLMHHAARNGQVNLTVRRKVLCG
# GRIP1_2, Q9Y3R0 = biological target: T6, GRIP1_2, Q9Y3R0
# T6 sequence (Q9Y3R0 145-248, limits assumed, looked up): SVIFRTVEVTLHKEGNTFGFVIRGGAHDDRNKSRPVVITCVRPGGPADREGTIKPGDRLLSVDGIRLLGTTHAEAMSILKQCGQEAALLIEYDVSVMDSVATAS
# HTRA4, P83105 = biological target: T7, HTRA4, P83105
# T7 sequence (P83105 378-476, limits assumed, looked up): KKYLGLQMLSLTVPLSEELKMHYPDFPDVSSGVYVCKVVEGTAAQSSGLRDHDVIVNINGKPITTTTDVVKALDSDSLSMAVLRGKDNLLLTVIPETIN
# SNTA1, Q13424 = biological target: T8, SNTA1, Q13424
# T8 sequence (Q13424 82-180, limits assumed, looked up): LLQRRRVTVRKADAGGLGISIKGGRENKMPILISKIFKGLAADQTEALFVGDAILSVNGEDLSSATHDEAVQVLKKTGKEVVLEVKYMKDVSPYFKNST
# TJP3_3, O95049 = biological target: T9, TJP3_3, O95049
# T9 sequence (O95049 375-456, limits assumed, looked up): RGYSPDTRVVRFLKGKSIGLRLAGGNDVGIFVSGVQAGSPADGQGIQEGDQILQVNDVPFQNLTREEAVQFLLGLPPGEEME
# Inadl_5, Q8NI35 = biological target: Inadl_5, Q8NI35
# Sequence of Inadl_5, Q8NI35 (Q8NI35 673-780): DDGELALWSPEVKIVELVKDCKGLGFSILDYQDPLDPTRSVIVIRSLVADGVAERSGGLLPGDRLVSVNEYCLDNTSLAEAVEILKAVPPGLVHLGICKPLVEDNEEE
# HTRA1, Q92743 = biological target: HTRA1, Q92743
# Sequence of HTRA1, Q92743 (Q92743 360-477): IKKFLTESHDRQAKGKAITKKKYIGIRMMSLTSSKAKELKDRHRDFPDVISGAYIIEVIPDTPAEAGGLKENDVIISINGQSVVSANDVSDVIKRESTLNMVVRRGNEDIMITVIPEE
# CARD11, Q9BXL7 = biological target: T10, CARD11, Q9BXL7
# T10 sequence (Q9BXL7 662-765, limits assumed, looked up): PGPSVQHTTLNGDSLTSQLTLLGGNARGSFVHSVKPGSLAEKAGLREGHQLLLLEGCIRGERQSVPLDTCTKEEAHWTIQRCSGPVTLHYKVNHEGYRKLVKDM
# LDB3, O75112 = biological target: LDB3, O75112
# Sequence of LDB3, O75112 (O75112 1-94): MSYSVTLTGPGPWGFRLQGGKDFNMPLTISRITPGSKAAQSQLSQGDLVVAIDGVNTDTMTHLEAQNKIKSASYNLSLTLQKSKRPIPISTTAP
# SIPA1L2, Q9P2F8 = biological target: T11, SIPA1L2, Q9P2F8
# T11 sequence (Q9P2F8 945-1036, limits assumed, looked up): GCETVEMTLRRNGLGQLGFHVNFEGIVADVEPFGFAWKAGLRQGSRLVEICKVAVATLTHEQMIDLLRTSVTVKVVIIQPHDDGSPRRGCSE
# NHERF4_2, Q86UT5 = biological target: NHERF4_2, Q86UT5
# Sequence of NHERF4_2, Q86UT5 (Q86UT5 220-308): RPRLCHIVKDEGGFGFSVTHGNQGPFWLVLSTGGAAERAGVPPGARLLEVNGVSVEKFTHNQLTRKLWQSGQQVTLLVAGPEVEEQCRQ
# SCRIB_2, Q14160 = biological target: SCRIB_2, Q14160
# Sequence of SCRIB_2, Q14160 (Q14160 857-960): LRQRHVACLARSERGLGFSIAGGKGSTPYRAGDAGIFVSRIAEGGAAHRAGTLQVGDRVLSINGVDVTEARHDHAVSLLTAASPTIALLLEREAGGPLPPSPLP
# Sequence of GRIP2_4, Q9C0E4 (Q9C0E4 446-548): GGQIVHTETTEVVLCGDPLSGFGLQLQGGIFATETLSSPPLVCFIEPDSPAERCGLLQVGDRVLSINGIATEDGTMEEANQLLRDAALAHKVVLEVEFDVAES
# Sequence of PTPN3, P26045 (P26045 505-587): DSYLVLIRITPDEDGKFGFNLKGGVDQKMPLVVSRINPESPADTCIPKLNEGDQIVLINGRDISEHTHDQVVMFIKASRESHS
Binder,"pKd (PTPN3, P26045)","pKd (GRIP2_4, Q9C0E4)","pKd (MAGI2_5, Q86UL8)","pKd (SNTG1, Q9NSN8)","pKd (NHERF3_3, Q5T2W1)","pKd (NHERF3_4, Q5T2W1)","pKd (Inadl_6, Q8NI35)","pKd (FRMPD1, Q5SYB0)","pKd (ARHGEF12, Q9NZN5-2)","pKd (LNX1_3, Q8TBB1)","pKd (DLG1_3, Q12959)","pKd (MAGI2_3, Q86UL8)","pKd (GIPC2, Q8TF65)","pKd (PICK1, Q9NRD5)","pKd (PDZD2_2, O15018)","pKd (MAGI2_4, Q86UL8)","pKd (GRIP1_2, Q9Y3R0)","pKd (HTRA4, P83105)","pKd (SNTA1, Q13424)","pKd (TJP3_3, O95049)",other results
"SSALYGESDL [ACTN2, P35609]",4.45,below the threshold,below the threshold,4.12,below the threshold,below the threshold,below the threshold,below the threshold,4.06,below the threshold,3.75,below the threshold,4.09,below the threshold,below the threshold,below the threshold,below the threshold,below the threshold,3.59,below the threshold,"pKd (Inadl_5, Q8NI35): below the threshold; pKd (HTRA1, Q92743): below the threshold; pKd (CARD11, Q9BXL7): below the threshold; pKd (LDB3, O75112): 4.4; pKd (SIPA1L2, Q9P2F8): below the threshold; pKd (NHERF4_2, Q86UT5): below the threshold; pKd (SCRIB_2, Q14160): 4.06"
"PRISRSQSEL [CCDC134, Q9H6E4]",4.22,below the threshold,below the threshold,below the threshold,below the threshold,below the threshold,below the threshold,below the threshold,4.27,below the threshold,below the threshold,below the threshold,below the threshold,4.14,3.66,below the threshold,below the threshold,below the threshold,below the threshold,below the threshold,"pKd (Inadl_5, Q8NI35): below the threshold; pKd (HTRA1, Q92743): below the threshold; pKd (CARD11, Q9BXL7): below the threshold; pKd (LDB3, O75112): below the threshold; pKd (SIPA1L2, Q9P2F8): below the threshold; pKd (NHERF4_2, Q86UT5): below the threshold; pKd (SCRIB_2, Q14160): below the threshold"
"GQEEQVTTRL [TRPC5, Q9UL62]",4.54,below the threshold,3.54,below the threshold,4.65,5.33,3.79,below the threshold,4.9,below the threshold,below the threshold,below the threshold,below the threshold,4.06,below the threshold,below the threshold,below the threshold,below the threshold,3.91,below the threshold,"pKd (Inadl_5, Q8NI35): below the threshold; pKd (HTRA1, Q92743): 3.92; pKd (CARD11, Q9BXL7): below the threshold; pKd (LDB3, O75112): below the threshold; pKd (SIPA1L2, Q9P2F8): below the threshold; pKd (NHERF4_2, Q86UT5): below the threshold; pKd (SCRIB_2, Q14160): below the threshold"
